In article PMC2675061:

Key:
PTP-SL 147-549 (C480S) = assay: ITC; ERK2 (75-100 µM) injected into PTP-SL (8-10 µM) in the cell, 30 °C; single-site binding model
[1] = target: PTP-SL full cytoplasmic region (aa147-549); assay: SEC; Superdex 200 HR 10/30 analytical column; 10 mM Hepes, 150 mM NaCl, 0.1 mM EDTA, 5 mM DTT, pH 7.5, no SDS; 100 µl sample, 0.5 ml/min; apparent MW against Bio-Rad gel filtration standard

Row | Substance | Ka (PTP-SL 147-549 (C480S)) | Kd (PTP-SL 147-549 (C480S)) | dH (PTP-SL 147-549 (C480S)) | stoichiometry N (PTP-SL 147-549 (C480S)) | stoichiometry N [1]
1 | ERK2 (from UniProt P63086 1-358) (enzyme) | 6.6e+06 M⁻¹ | 150 nM | -21 kcal/mol | 1.06 | 
2 | PTP-SL full cytoplasmic region (aa147-549) (domain or fragment) |  |  |  |  | 2
